Experimental data taken from US20200317768A1 (published 2020).

Biological target: T1, cynomolgus monkey FcγRIIa2 extracellular domain, C-terminal His-tag (cynomolgus monkey)
T1 construct: also called cyno FcγRIIa2; cynoFcgRIIa2; not shown: His-tag added to C-terminus
T1 chain: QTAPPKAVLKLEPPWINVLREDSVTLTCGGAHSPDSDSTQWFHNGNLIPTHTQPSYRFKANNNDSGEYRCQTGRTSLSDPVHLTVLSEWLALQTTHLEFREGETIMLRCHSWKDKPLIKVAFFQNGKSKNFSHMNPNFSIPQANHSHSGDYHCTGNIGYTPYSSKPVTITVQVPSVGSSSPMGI
Assay: SPR (BIACORE); KD of parent SG1 / KD of variant

KD fold (SG1 = 1): 1 fold
B1: MS_M103205H795-SG1/M103202L889-SK1 (antibody, human IgG1, kappa)
heavy: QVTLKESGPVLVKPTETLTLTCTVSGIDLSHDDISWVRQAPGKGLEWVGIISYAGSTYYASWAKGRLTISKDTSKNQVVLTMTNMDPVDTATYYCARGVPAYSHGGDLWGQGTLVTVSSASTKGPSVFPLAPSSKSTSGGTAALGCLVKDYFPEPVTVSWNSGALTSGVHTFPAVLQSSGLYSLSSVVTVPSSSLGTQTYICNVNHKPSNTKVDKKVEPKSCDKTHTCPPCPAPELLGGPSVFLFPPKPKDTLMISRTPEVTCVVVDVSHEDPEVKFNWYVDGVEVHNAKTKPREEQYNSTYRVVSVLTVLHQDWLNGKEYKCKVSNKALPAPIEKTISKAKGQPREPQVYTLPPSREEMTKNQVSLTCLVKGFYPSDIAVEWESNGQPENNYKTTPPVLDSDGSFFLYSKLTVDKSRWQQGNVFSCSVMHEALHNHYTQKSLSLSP
light: DIVMTQSPATLSLSPGERATLSCTSSQSVYHANWLSWFQQKPGQPPKLLIYWASTLAYGVPSRFSGSGSGTDFTLTISSLQPEDAATYYCAGGYGGGRYAFGQGTKVEIKRTVAAPSVFIFPPSDEQLKSGTASVVCLLNNFYPREAKVQWKVDNALQSGNSQESVTEQDSKDSTYSLSSTLTLSKADYEKHKVYACEVTHQGLSSPVTKSFNRGEC
notes: Parent antibody with SG1 human heavy chain constant region; also called MS1032LO06-SG1
